Experiment [1] has as its target T1, Soluble human α-Klotho ectodomain (αKlotho^ecto) (human, UniProt Q9UEF7 34-981).
T1 construct: also called wild-type αKlotho^ecto; soluble αKlotho
T1 sequence: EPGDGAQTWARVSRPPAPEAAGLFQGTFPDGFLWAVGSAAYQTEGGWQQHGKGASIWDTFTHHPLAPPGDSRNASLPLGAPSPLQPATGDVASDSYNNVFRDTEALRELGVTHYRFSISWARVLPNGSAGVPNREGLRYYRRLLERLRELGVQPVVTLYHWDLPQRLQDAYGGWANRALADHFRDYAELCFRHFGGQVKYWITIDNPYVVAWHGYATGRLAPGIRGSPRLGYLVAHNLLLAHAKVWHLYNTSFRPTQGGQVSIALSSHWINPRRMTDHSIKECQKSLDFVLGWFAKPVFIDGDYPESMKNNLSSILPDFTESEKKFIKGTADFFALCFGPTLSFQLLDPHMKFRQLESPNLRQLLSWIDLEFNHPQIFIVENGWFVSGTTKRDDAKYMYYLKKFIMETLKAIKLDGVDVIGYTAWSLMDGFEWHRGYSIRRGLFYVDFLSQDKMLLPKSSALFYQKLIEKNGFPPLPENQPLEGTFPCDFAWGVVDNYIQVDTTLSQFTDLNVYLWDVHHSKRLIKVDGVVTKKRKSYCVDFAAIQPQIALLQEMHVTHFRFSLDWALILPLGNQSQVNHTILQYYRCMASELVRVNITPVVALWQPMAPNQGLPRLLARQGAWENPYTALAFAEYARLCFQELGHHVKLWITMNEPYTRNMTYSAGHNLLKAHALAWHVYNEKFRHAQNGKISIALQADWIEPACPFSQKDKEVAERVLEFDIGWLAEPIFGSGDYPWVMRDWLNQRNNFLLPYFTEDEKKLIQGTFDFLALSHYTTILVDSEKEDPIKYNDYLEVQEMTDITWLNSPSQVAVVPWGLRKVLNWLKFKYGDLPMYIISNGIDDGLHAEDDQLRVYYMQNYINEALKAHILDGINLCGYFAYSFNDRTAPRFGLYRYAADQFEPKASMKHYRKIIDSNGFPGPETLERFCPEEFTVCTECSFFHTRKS
Nature of the experiment: size-exclusion chromatography of the mixture, with Coomassie-stained SDS-PAGE of the eluted peak fractions [left].

The target of experiment [2] is T2, αKlotho^ecto/ΔRBA (soluble αKlotho ectodomain lacking L544 to T565 of the KL2 β1α1 loop) (human, UniProt Q9UEF7 34-981).
T2 construct: the mature protein is E34 to S959; Expressed and purified like the wild type (pEF1α/myc-His A); also called α-Klotho^ecto/deltaRBA; αKlotho^ecto/ΔRBA mutant
T2 sequence: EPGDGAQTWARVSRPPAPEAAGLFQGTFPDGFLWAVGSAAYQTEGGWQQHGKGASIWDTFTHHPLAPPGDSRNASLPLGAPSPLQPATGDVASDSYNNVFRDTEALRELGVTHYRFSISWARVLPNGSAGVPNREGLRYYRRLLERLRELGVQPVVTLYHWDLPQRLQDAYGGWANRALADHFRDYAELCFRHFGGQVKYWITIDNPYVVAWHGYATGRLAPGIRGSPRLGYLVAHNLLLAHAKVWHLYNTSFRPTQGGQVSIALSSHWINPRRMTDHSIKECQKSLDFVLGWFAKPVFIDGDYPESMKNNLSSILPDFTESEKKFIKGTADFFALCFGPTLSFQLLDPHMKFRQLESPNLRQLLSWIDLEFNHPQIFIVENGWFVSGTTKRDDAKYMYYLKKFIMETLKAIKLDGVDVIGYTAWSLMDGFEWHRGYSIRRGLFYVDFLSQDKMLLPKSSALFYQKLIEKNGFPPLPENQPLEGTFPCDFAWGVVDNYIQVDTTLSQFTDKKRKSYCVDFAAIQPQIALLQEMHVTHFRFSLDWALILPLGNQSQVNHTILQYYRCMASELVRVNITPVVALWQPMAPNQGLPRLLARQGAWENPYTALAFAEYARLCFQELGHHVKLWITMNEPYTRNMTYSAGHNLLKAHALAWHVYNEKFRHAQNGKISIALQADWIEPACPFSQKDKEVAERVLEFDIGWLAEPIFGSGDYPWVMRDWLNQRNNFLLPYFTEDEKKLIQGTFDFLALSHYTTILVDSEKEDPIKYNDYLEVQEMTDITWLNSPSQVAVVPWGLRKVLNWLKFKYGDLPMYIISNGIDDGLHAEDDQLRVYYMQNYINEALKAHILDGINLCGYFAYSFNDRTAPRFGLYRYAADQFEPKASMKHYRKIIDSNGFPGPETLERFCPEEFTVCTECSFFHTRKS
Nature of the experiment: size-exclusion chromatography of FGF23/αKlotho^ecto/ΔRBA mixture. (Size exclusion chromatography separates by hydrodynamic size, large species first.)

One molecule from patent publication US20210054355A1 (NEW YORK UNIVERSITY, published 2021) can be followed below.

B1: FGF23^WT (human FGF23 Y25 to S205 with R176Q/R179Q, protease-resistant minimal protein) (ligand)
chain: YPNASPLLGSSWGGLIHLYTATARNSYHLQIHKNGHVDGAPHQTIYSALMIRSEDAGFVVITGVMSRRYLCMDFRGNIFGSHYFDPENCRFQHQTLENGYDVYHSPQYHFLVSLGRAKRAFLPGMNPPPYSQFLSRRNEIPLIHFNTPIPRQHTQSAEDDSERDPLNVLKPRARMTPAPAS
notes: also called wild-type FGF23; minimal FGF23
For the molecule B1, the binding result in experiment [1] and in experiment [2] was “binds” each time.
